Data taken from article PMC4163509 (Molecular and cellular endocrinology, 2014).

How the values were obtained:
[1] = target: T1, Methoprene-tolerant (Met) protein, AaMet (Aedes aegypti, UniProt Q58FS0); assay: [3H]-JH-III dextran-coated charcoal radioligand binding, Scatchard
T1 sequence (Q58FS0 1-597): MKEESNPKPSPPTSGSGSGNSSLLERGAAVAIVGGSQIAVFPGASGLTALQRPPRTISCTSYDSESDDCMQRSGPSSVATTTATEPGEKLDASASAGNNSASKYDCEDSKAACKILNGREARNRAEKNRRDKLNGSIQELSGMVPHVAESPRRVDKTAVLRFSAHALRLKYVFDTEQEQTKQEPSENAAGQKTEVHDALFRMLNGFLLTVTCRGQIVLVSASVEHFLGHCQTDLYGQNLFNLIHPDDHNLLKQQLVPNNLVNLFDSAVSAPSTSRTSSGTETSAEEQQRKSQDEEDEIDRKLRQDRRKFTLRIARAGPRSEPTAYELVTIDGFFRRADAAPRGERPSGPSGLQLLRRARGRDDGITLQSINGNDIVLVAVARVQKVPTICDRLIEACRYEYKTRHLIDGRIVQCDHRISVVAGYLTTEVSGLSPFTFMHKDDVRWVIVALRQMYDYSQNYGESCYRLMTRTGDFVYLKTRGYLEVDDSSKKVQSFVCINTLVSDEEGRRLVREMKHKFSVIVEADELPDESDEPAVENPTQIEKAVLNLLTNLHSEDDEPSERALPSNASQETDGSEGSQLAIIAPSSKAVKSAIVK

[2] = target: bHLH-PAS domain of AaMet fused to the GAL4 DNA-binding domain (Aedes aegypti) (UniProt Q58FS0); assay: two-hybrid
GST-AaMet (bHLH-PAS) = target: T2, GST-AaMet (bHLH-PAS) (Aedes aegypti, UniProt Q58FS0 1-597); assay: EMSA
T2 sequence: T1 sequence (Q58FS0 1-597)

Molecule `COC(=O)/C=C(\C)CC/C=C(\C)CC[C@H]1OC1(C)C` [JH-III] has a Kd [1] of 4.4 ± 1.9 nM.

“bHLH-PAS domain of AaFISC fused to the activation domain of GAL4 (domain or fragment)” showed a fold enhancement of two-hybrid reporter activation with JH-III [2] greater than 20 fold.

B1: AaET_JHRE1 (dsDNA)
DNA 1: CCATCCCACACGCGAAGACGATAAAACCA
DNA 2: TGGTTTTATCGTCTTCGCGTGTGGGATGG
B1: no binding (GST-AaMet (bHLH-PAS)).
